In this assay the target is GST-mouse ZO-1 (1–862 amino acids) (mouse) (UniProt P39447). Put plainly: pull-down.
Sequence of UniProt P39447 (P39447 1-862): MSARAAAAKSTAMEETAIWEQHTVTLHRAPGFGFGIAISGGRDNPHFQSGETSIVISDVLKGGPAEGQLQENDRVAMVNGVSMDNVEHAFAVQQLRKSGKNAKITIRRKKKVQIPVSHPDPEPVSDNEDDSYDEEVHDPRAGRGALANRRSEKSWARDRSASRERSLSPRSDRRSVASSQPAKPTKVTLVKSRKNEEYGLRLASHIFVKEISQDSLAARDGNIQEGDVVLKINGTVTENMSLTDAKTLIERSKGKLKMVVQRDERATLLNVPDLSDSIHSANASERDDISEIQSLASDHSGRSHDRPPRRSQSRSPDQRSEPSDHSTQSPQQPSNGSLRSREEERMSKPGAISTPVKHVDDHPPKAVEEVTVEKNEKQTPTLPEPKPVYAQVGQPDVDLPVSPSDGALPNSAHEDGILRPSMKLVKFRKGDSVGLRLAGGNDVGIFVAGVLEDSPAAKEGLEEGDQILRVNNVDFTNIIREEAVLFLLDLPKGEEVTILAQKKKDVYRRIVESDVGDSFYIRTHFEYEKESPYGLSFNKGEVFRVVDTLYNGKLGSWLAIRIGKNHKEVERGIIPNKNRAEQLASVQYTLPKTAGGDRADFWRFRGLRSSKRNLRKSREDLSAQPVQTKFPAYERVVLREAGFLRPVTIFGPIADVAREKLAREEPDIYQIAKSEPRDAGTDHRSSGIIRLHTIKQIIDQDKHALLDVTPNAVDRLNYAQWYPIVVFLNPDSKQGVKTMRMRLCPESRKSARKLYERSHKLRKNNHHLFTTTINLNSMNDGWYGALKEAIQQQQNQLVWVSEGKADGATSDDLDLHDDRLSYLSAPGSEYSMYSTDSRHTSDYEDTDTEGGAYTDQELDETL

The Kd is a measure of binding affinity in units of concentration. A low value points to higher affinity. Substance “MBP-AF-6 (36–206 amino acids) (domain or fragment)” came in with a dissociation constant Kd of 260 nM.

The values are drawn from article PMC2141704.
